Legend:
human CD137 on cells = human CD137 on cells (UniProt Q07011 24-255); test: FACS binding CHO-K1/human CD137 cells
cynomolgus 5T4 on cells = target: T1, cynomolgus 5T4 on cells (cynomolgus macaque, UniProt Q4R8Y9 35-420); test: FACS binding CHO-K1/cynomolgus 5T4 cells
T1 chain: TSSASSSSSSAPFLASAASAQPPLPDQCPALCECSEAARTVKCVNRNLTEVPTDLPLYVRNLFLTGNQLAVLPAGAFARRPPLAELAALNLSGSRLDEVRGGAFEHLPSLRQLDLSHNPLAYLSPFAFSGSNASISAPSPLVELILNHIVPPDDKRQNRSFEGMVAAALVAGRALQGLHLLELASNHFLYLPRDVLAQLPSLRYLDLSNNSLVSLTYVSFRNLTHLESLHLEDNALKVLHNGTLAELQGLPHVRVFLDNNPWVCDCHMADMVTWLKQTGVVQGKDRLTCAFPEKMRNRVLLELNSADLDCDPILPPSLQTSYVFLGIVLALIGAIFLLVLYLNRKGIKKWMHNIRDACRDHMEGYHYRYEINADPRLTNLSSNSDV

human 5T4 on cells = target: T2, human 5T4 on cells (UniProt Q13641 32-420); test: FACS binding CT26 human 5T4 cells; CT26 cells
T2 chain: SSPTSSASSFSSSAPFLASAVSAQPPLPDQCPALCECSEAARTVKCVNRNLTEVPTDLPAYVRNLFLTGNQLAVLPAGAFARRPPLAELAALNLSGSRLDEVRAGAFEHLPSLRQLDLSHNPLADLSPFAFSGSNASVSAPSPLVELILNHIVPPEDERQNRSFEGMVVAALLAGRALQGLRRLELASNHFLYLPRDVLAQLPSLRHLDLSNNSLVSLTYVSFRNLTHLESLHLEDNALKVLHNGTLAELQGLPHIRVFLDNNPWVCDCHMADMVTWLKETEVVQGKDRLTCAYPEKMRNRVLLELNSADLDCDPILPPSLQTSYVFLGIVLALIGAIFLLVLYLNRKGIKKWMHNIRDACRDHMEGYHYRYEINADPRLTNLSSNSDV

Sequence of human CD137 on cells (Q07011 24-255): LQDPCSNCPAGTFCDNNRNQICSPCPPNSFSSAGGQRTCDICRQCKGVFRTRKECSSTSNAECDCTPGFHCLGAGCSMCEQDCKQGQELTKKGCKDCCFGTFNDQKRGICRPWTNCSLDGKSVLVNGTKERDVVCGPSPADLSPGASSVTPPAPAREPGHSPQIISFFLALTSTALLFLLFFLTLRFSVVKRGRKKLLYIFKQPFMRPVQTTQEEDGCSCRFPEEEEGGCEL

B1: ALG.APV-004 (bispecific antibody)
chain 1: EVQLLESGGGLVQPGGSLRLSCAASGFTFSYGSMYWVRQAPGKGLEWVSSISSGSGSTYYADSVKGRFTISRDNSKNTLYLQMNSLRAEDTAVYYCARSSYYGSYYSIDYWGQGTLVTVSSEVQLLESGGGLVQPGGSLRLSCAASGFTFSSYAMSWVRQAPGKCLEWVSAISGSGGSTYYADSVKGRFTISRDNSKNTLYLQMNSLRAEDTAVYYCARYYGGYYSAWMDYWGQGTLVTVSSDIQMTQSPSSLSASVGDRVTITCRASQSISSYLNWYQQKPGKAPKLLIYAASSLQSGVPSRFSGSGSGTDFTLTISSLQPEDFATYYCQQTYGYLHTFGCGTRLEIK
chain 2: DIQMTQSPSSLSASVGDRVTITCRASQSISSYLNWYQQKPGKAPKLLIYAASSLQSGVPSRFSGSGSGTDFTLTISSLQPEDFATYYCQQYYDNLPTFGQGTKLEIK
EC50 (human CD137 on cells): 0.39 nM | EC50 (cynomolgus 5T4 on cells): 6.5 nM | EC50 (human 5T4 on cells): 1.5 nM

From US20190382503A1 (published 2019)
